{"source": "paper PMC12365614", "about": "“Bipartite chromatin recognition by Hop1 from two diverged Holozoa”", "key": {"[1]": {"test_system": "S. mansoni Hop1 CBR WT (Schistosoma mansoni)", "assay": "fluorescence polarization", "conditions": "FP: 20 mM Tris-HCl pH 8, 100 mM Na glutamate, 5 mM MgCl2, 3% glycerol, 0.5 mM BME, 50 nM DNA, 4 C 30 min; EMSA: 20 mM Hepes pH 7, 100 mM NaCl, 100 uM ZnCl2, 10%"}, "[2]": {"target": "T1, P. miniata Hop1 CBR R463A (Patiria miniata, UniProt A0A913ZKG6 352-499, R463A)", "T1 sequence": "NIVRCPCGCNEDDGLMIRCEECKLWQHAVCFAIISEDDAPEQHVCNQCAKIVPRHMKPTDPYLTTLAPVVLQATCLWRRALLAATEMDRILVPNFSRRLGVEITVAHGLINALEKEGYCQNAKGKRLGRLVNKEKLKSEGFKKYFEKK", "assay": "fluorescence polarization; FP: 20 mM Tris-HCl pH 8, 100 mM Na glutamate, 5 mM MgCl2, 3% glycerol, 0.5 mM BME, 50 nM DNA, 4 C 30 min; EMSA: 20 mM Hepes pH 7, 100 mM NaCl, 100 uM ZnCl2, 10% glycerol, 2 mM BME, 4 C 60 min", "conditions": "protein: recombinant; tags: N-terminal His6-GST (uncleaved); label: 5' 6-FAM on strand 1; blunt"}, "[3]": {"target": "T2, P. miniata Hop1 CBR R477A (Patiria miniata, UniProt A0A913ZKG6 352-499, R477A)", "T2 sequence": "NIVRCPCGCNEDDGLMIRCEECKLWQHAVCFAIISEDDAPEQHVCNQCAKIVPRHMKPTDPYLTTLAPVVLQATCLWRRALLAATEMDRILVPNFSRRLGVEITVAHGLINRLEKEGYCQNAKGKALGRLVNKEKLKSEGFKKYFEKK", "assay": "fluorescence polarization; FP: 20 mM Tris-HCl pH 8, 100 mM Na glutamate, 5 mM MgCl2, 3% glycerol, 0.5 mM BME, 50 nM DNA, 4 C 30 min; EMSA: 20 mM Hepes pH 7, 100 mM NaCl, 100 uM ZnCl2, 10% glycerol, 2 mM BME, 4 C 60 min", "conditions": "protein: recombinant; tags: N-terminal His6-GST (uncleaved); label: 5' 6-FAM on strand 1; blunt"}, "[4]": {"target": "T3, P. miniata Hop1 CBR WT (GST) (Patiria miniata, UniProt A0A913ZKG6 352-499)", "T3 sequence": "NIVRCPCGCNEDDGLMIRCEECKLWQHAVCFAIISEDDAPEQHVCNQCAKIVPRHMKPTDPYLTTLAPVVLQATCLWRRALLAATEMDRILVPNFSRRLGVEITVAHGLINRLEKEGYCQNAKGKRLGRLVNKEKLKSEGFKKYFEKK", "assay": "fluorescence polarization; FP: 20 mM Tris-HCl pH 8, 100 mM Na glutamate, 5 mM MgCl2, 3% glycerol, 0.5 mM BME, 50 nM DNA, 4 C 30 min; EMSA: 20 mM Hepes pH 7, 100 mM NaCl, 100 uM ZnCl2, 10% glycerol, 2 mM BME, 4 C 60 min", "conditions": "protein: recombinant; tags: N-terminal His6-GST (uncleaved); label: 5' 6-FAM on strand 1; blunt"}}, "data": [{"molecule": "CTTATATCTGAATAGTCAGT (double strand) [20-bp FAM duplex]", "values": [{"measurement": "Kd", "setting": "[1]", "value": 16, "unit": "µM"}]}, {"molecule": "20-bp FAM duplex (dsDNA) DNA 1: CTTATATCTGAATAGTCAGT DNA 2: ACTGACTATTCAGATATAAG", "values": [{"measurement": "binding result", "setting": "[2]", "value": "no binding"}, {"measurement": "binding result", "setting": "[3]", "value": "no binding"}, {"measurement": "Kd", "setting": "[4]", "value": 16, "unit": "µM"}]}]}
